Measured values published in paper PMC9527319, “^99mTc-labeled iRGD for single-positron emission computed tomography imaging of triple-negative breast cancer” (Frontiers in Bioengineering and Biotechnology, 2022).
Like-named read-outs stand apart in the source and are kept apart here. Bridge positions count the residues as written; N and C are the ends. Peptide text beside a SMILES is read from it. * marks the point of attachment. HYNIC = NNc1ccc(C(=O)*)cn1

How the values were obtained:
[1] = In vitro stability of 99mTc-labeled peptides in PBS and cysteine solution (RCP by TLC); assay type: physicochemical; settings: PBS (0.1 M, pH = 7.4) and cysteine solution (100-fold molar excess over the peptides), room temperature, within 6 h, RCP by TLC (silica gel 60 F254, 50% acetonitrile)
Experimental: (§1) HYNIC-iRGD, HYNIC-iRGE, and HYNIC-CG7C were labeled with ^99mTc according to previously published procedures in the literature ([Bohn et al., 2013]; [Xu et al., 2017]; [Gong et al., 2022]). In brief, a mixture of 50 μl HYNIC-modified peptide (1 mg/ml in water), 0.5 ml EDDA solution (20 mg/ml in 0.1 M NaOH), 0.5 ml tricine solution (40 mg/ml in 0.2 M PBS, pH = 6.0), 1 ml Na^99mTcO4 solution (50 mCi/ml), and 50 μl SnCl2 solution (1 mg/ml in 0.1 M HCl) were heated at 100°C for 15 min. After cooling to room temperature, the mixture was analyzed using instant thin-layer chromatography (TLC) and radio-high-performance liquid chromatography (radio-HPLC). The ^99mTc-labeled peptides were characterized using an Agilent 1260 HPLC system (Agilent Technologies, United States) equipped with a UV-vis detector (λ = 220 nm) and a radioactive flow detector (BioScan, United States). A SunFire C18 column (5 μm, 4.6 × 250 mm, Waters, Japan) was used at a flow rate of 1 ml/min with the following gradient method: 0.1% Trifluoroacetic acid in H2O and CH3CN (0–20 min, 10%–35% CH3CN) for iRGD and iRGE, and 0.1% trifluoroacetic acid in H2O and CH3CN (0–20 min, 25%–60% CH3CN) for CG7C. Their RCPs were determined by radio-HPLC and rapidly analyzed by TLC in a system consisting of silica gel 60 F254 TLC plates (Merck, Germany) and 50% acetonitrile as mobile phase. […]

[2] = test system: 4T1 tumor-bearing mice; settings: for course of SPECT signal in tumor with time: i.v. tail vein, 0.5, 1, 2 and 4 h post-injection; for tumor accumulation (SPECT): i.v. tail vein, 0.5 h post-injection
From the text: Murine breast cancer cells 4T1 were purchased from Procell Life Science and Technology Co., Ltd. (Wuhan, China) and maintained in RPMI-1640 supplemented with 10% FBS. Four-week-old female BALB/c nude mice (18–20 g) and healthy ICR mice (20–22 g) were purchased from Shanghai Laboratory Animal Center of the Chinese Academy of Sciences (Shanghai, China). To establish breast cancer models, four-week-old female BALB/c nude mice were subcutaneously injected in their right-side flanks with 5 × 10^6 4T1 cells suspended in 100 μl of PBS. When the tumor diameter reached 0.8–1.2 cm, the mice were used for animal experiments. All animal experiments were repeated three times and performed according to the protocols established by the Ethics Committee of Shanghai General Hospital.
The 4T1 tumor-bearing mice were randomly divided into three groups (three mice per group). After anesthetization with pentobarbital sodium (40 mg/kg), 200 μl of ^99mTc-HYNIC-iRGD, ^99mTc-HYNIC-iRGE, or ^99mTc-HYNIC-CG7C ([^99mTc] = 10 mCi/ml) was injected via the tail vein. SPECT images were acquired at 0.5, 1, 2, and 4 h post-injection using a SPECT imaging system equipped with a Xeleris 2.0 workstation and low-energy general-purpose collimators (Infinia, Denver, CO, United States).

[3] = Pharmacokinetics (blood radioactivity-time curve); assay type: in vivo; settings: healthy ICR mice; for clear-phase half-life t1/2(β) / distribution phase half-life t1/2(α): i.v., blood, two-compartment model (DAS 2.0); for tissue uptake at 1 min / tissue uptake at 0.5 h / tissue uptake at 3 h: mouse, whole blood, iv, 20 uCi, total radioactivity, i.v. 20 μCi in 200 μl PBS, γ-counter, read-out: radioactivity level in blood; for tissue uptake at 1 min / tissue uptake at 0.5 h: mean ± SD; for tissue uptake at 0.5 h: 30 min; for tissue uptake at 3 h: 180 min
Experimental: The pharmacokinetic profiles of ^99mTc-HYNIC-iRGD and ^99mTc-HYNIC-iRGE were evaluated in healthy ICR mice. Each mouse was intravenously injected with ^99mTc-HYNIC-iRGD or ^99mTc-HYNIC-iRGE at a dose of 20 μCi in 200 μl PBS solution. Blood samples ([…]) from each mouse were immediately collected and weighed at designated times (1, 2, 5, 15, 30, 60, 120, and 180 min), and the radioactivity was measured using a γ-counter to calculate the %ID/g. Moreover, the pharmacokinetic data were analyzed by DAS 2.0 (Shanghai, China) using a two-compartment model to calculate the half-lives of ^99mTc-HYNIC-iRGD and ^99mTc-HYNIC-iRGE in blood.

[4] = In vitro stability of 99mTc-labeled peptides in FBS (RCP by TLC); assay type: in vitro ADME, bovine; settings: FBS at 37°C, within 6 h, RCP by TLC (silica gel 60 F254, 50% acetonitrile)
Experimental: as §1

[5] = test system: 4T1 tumor-bearing mice; experiment: Biodistribution (gamma-counter, %ID/g); assay type: in vivo
Experimental: The radioactivity counts of all samples were measured using a γ-counter (CAPINTEC, United States) and expressed as counts per minute after correction for decay. The results are shown as the percentage of injection dose/gram (%ID/g) of wet tissue for each time point in each group.

[6] = i.v. 20 μCi, 4 h post-injection

Structure (SMILES) | changes in RCPs (stability in vitro) [1] | course of SPECT signal in tumor with time ([2]; 4T1 tumor-bearing nude mice) | tumor accumulation (SPECT) ([2]; 4T1 tumor-bearing nude mice) | radioactivity in bladder and kidneys (SPECT; clearance through the urinary system) ([2]; 4T1 tumor-bearing nude mice, i.v., each time point 0.5–4 h) | clear-phase half-life t1/2(β) [3] [min] | distribution phase half-life t1/2(α) [3] [min] | tissue uptake at 1 min [3] [%ID/g] | tissue uptake at 0.5 h [3] [%ID/g] | tissue uptake at 3 h [3] [%ID/g] | changes in RCPs (stability in vitro) [4] | tumor-to-muscle (T/M) ratio ([5]; i.v. 20 μCi, 0.5, 1, 2 and 4 h post-injection) | tumor-to-kidney (T/K) ratio ([5]; i.v. 20 μCi, 0.5–4 h post-injection) | tumor-to-blood (T/B) ratio [5, 6] | tumor-to-lung (T/Lu) ratio [5, 6] | radioactivity in bladder and kidneys (SPECT; clearance through the urinary system) ([2]; mouse, in vivo, iv)
N=C(N)NCCC[C@@H]1NC(=O)[C@@H](NC(=O)c2ccc(NN)nc2)CSSC[C@@H](C(=O)O)NC(=O)[C@H](CC(=O)O)NC(=O)[C@@H]2CCCN2C(=O)CNC(=O)[C@H](CCCCN)NC(=O)[C@H](CC(=O)O)NC(=O)CNC1=O [^99mTc-HYNIC-iRGD, metal not drawn] | no obvious changes in RCPs | increase in tumor accumulation of radioactivity | distinct tumor accumulation | high radioactivity | 12.54 | 1.43 | 14.3 ± 0.95 | 1.26 ± 0.11 | ~0.1 | no obvious changes in RCPs | higher in mice treated with ^99mTc-HYNIC-iRGD than in those treated with ^99mTc-HYNIC-iRGE at each time point | much higher than for ^99mTc-HYNIC-iRGE and ^99mTc-HYNIC-CG7C | 1.8 | 1.9 | 
N=C(N)NCCC[C@@H]1NC(=O)[C@@H](NC(=O)c2ccc(NN)nc2)CSSC[C@@H](C(=O)O)NC(=O)[C@H](CC(=O)O)NC(=O)[C@@H]2CCCN2C(=O)CNC(=O)[C@H](CCCCN)NC(=O)[C@H](CCC(=O)O)NC(=O)CNC1=O [^99mTc-HYNIC-iRGE, metal not drawn] ({HYNIC}-CRGEKGPDC-OH; disulfide 1-9 (inferred); N-terminus and C-terminus assumed) | no obvious changes in RCPs | gradually faded with time | distinct tumor accumulation |  | 10.56 | 0.88 | 19.3 ± 2.52 | 1.06 ± 0.08 | ~0.1 | no obvious changes in RCPs |  |  |  |  | high radioactivity
